B1: TPR t1 (parent)
chain: GACCAAUCUGCCCUCAGAGCUCGAGAACAUCUUCGGAUGCAGAGGAGGCAGGCUUCGGUGGCGCGAUAGCGCCAACGUCCUCAACCUCCAAUGCAUCCCACCACAUGAUGAUGCCUGAAGAGCCUUGGUUUUUUG

Variants of: B1
Assay: polymerase ribozyme fitness, log enrichment relative to wild type (log ratio); higher = more active; in vitro selection for triplet polymerase activity
Method in brief: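 Mutant libraries of both subunits of a heterodimeric triplet polymerase ribozyme were PCR-built, transcribed, and selected once in triplicate, with frozen incubation at −7 °C and capture of gel-excised extended constructs on streptavidin beads before RT-PCR. Illumina sequencing of input and output libraries was filtered to genotypes with ≥10 input reads and ≥1 read per output. Fitness is the logarithm of genotype enrichment over wild-type enrichment, using inverse-variance-weighted replicate averages. The logarithm is base 2.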

Variant	polymerase ribozyme fitness (log ratio)
C49A U54A C56U U112C	1.59
C49A U55C C88G C94U C124U	0.14
C49A U78A	-1.14
C49A U78A G117C G128A U131C U133G	-6.98
C49A U87C	0.179
C49A U92G G117U C123U	-6.98
C49A U96C G120U	-0.575
C49A U106A	-0.478
C49A U106G	-2.41
C49A U112A G127C	-0.179
C49A U131C	-0.0361
C49G A83G C124G	1.03
C49G A83U	-0.66
C49G A119G C123G	1.72
C49G C53A U59G C72U C86U U132A	-0.782
C49G C62A U78C	-1.5
C49G C62G C114A G117C	-7.8
C49G C70A G110A A121C	-4.74
C49G C70U A84G U126G U129G G135C	-4.25
C49G C79A	-3.75
C49G C80U	-3.42
C49G C82G	-1.03
C49G C85A G113U	-4.81
C49G C88A G107U	-6.08

Variant	polymerase ribozyme fitness (log ratio)
C49G C88U C94U	-0.799
C49G C89A	-2.67
C49G C94G	-1.92
C49G G51A U54G	-4.1
C49G G60C C86U	-0.802
C49G G60U U78C C97A	-5.83
C49G G63C C80U U112A C124U	-5.99
C49G G63U	-2.09
C49G G69A A100C C101U	-5.56
C49G G69C	-1.79
C49G G69U C115U	0.956
C49G G71C A84U G110C	-6.35
C49G G107A	-6.49
C49G G117C	-4.72
C49G G117U	-2.86
C49G G128U	-2.74
C49G G135U	-1.27
C49G U55C A95C C98U	-3.54
C49G U59G C62U G122A	-1.61
C49G U81G	-3.01
C49G U92C	-1.53
C49G U106G U116C	-4.97
C49G U109A U112A	-5.85
C49G U109C	-4.72

Variant	polymerase ribozyme fitness (log ratio)
C49G U125A	-0.51
C49G U129C	-0.4
C49G U130A	-1.8
C49U A50C A111G	0.0314
C49U A50G	-1.68
C49U A50U C82U	-1.71
C49U A66G G120C C123G	-1.48
C49U A75U C79U U116A U130C	-4.3
C49U A84U C88A	-1.82
C49U A90G	0.52
C49U A95U C102A	-3.2
C49U A118U	-0.365
C49U C53A C104U	-0.231
C49U C53U	-0.552
C49U C53U C70U C79U	-4.07
C49U C53U C79A G120A G128A	-3.2
C49U C56U C72G C101G	-3.7
C49U C62G	-4.14
C49U C64A U81A G93U C114G C123U	-6.8
C49U C70G C102A A111C U116A G120C	-6.27
C49U C72A C79G C104A	-4.65
C49U C72U	-0.879
C49U C72U C89G	-1.87
C49U C73U	-0.609

Variant	polymerase ribozyme fitness (log ratio)
C49U C76G	-0.454
C49U C86U C97U G117C C124A	-4.42
C49U C89U A105U	-4.2
C49U C101A	-1.69
C49U C104A	-2.12
C49U C104U C124A	1.02
C49U C115A	-0.871
C49U G51U C62U C80A G113A	-4.27
C49U G52U C56U G77U C101A	-2.69
C49U G52U G61A G120A	-0.105
C49U G58A U125A	-1.44
C49U G60C A103C U112A C123G	-4.76
C49U G63C	-0.762
C49U G69A	-3.63
C49U G69U G117U	-2.25
C49U G77A A90U A91G C102A	-6.02
C49U G77U C123G	0.718
C49U G93A	-1.33
C49U G107A G120C U130G	-6.54
C49U G110U	-2.6
C49U G113A	-1.68
C49U G117C	-3.03
C49U G128A	-2.63
C49U U54G U59A C79U C101A G113U	-5.96

Variant	polymerase ribozyme fitness (log ratio)
C49U U81C A95G C102G G110U G135U	-7.51
C49U U87A	-0.416
C49U U96A	-3.17
C49U U106A U116C	-1.79
C49U U106G	-2.35
C49U U112A	0.631
C49U U132A	-0.342
A50C	-0.212
A50C A121G	1.73
A50C C56A	-0.326
A50C C56G A121U	1.61
A50C C62A	-2.99
A50C C62G	-2.66
A50C C72A	0.00514
A50C C73A A74U	-1.27
A50C C73A U78G A90G	-1.98
A50C C73A U92G U112A G135A	-3.24
A50C C76G C82A G120C	-0.0695
A50C C94U	-0.435
A50C C115A U132C	-0.367
A50C G52U C94A G117A	-6.56
A50C G61U C79A	-2.63
A50C G61U C114U A118G	-3.14
A50C G63A U81A	-0.41

Variant	polymerase ribozyme fitness (log ratio)
A50C G63C C97U	-1.52
A50C G63U G69U U81G G128C	-3.4
A50C G71A U133C	-0.939
A50C G71U U130A	-0.942
A50C G110C	-4.96
A50C G113U	-3.73
A50C G117C	-3.5
A50C U78G G110C G120A C124U	-4.98
A50G	0.111
A50G A74U A91C	-2.03
A50G A91C	-1.05
A50G C53U G61C A90G G113A	-1.82
A50G C56A C82A U131C	-1.25
A50G C70U G113C	-3.88
A50G C72G C79A U132C	-1.72
A50G C85A	-2.34
A50G C86A C115G	-2.42
A50G C88A C97G	-4.42
A50G C88G G120A C124U U126C	0.11
A50G C99U	-3.27
A50G C99U G110C	-7.74
A50G G60C	-1.81
A50G G113U U131A	-4.11
A50G G117A	-1.18

Variant	polymerase ribozyme fitness (log ratio)
A50G G120A	0.658
A50G U55A G69A	-2.85
A50G U55C C88U G107C U112G C123G	-5.21
A50G U55G C79G A91C U109A	-6.64
A50G U87G	0.406
A50G U112C U116A	-0.435
A50G U129G	-0.967
A50U	-0.868
A50U A84C U125A	-1.62
A50U A84G A111C	-4.92
A50U C56A C82G U87G G117A U132A	-4.26
A50U C56A G69C C80G C104G C115G C123U U130C	-8.59
A50U C62U A91C	-3.88
A50U C62U C80U A84G A95U	-6.37
A50U C64U	-0.813
A50U C72U A74G	-1.22
A50U C73A C76G U112A	-3.53
A50U C80A G122A G127C U129C	-5.15
A50U C88A G110A	-3.66
A50U C94U	-0.732
A50U C99U	-5.15
A50U C101A	-2.09
A50U G51A G60A	-4.34

Source: the RNAGym collection of RNA variant scans (doi:10.1073/pnas.2313332121)
